From the nanobody polyreactivity screen of Harvey et al. (2022)

Experiment: yeast display, Sf9 membrane polyspecificity reagent, FACS + sequencing; frameworks hold sequencing errors
In short: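 Polyreactivity labels are assigned by the sorting gate from which each nanobody was recovered. The gates were low and high (top ~1%), set on anti-HA fluorescence for expression and streptavidin fluorescence for reagent binding. Before sorting, galactose-induced (36–48 hours) yeast display cells were stained for 1 hour at 4 °C with 10% biotinylated, detergent-solubilized Sf9 membrane reagent.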

Sequence	polyreactivity (PSR sort gate)
QVQLVESGGGLVQAGGSLRLSCAASGITFYSYAMGWYRQAPGKERELVAAISSSGTTYYADSVKGRFTISRDNAKNTVYLQMNSLKPEDTAVYYCAVDSYYKYDYWGQGTQVTVSS	low polyreactivity
QVQLVESGGGLVQAGGSLRLSCAASGITFYSYAMGWYRQAPGKERELVAAISTTVGSTYYADSVKGRFTISRDNAKNTVYLQMNSLKPEDTAVYYCNAYRVYAWIEYNYWGQGTQVTVSS	low polyreactivity
QVQLVESGGGLVQAGGSLRLSCAASGITFYVNAMGWYRQAPGKERELVAAISNGGSTNYADSVKGRFTISRDNAKNTVYLQMNSLKPEDTAVYYCAARPSYGRYRYYYWGQGTQVTVSS	high polyreactivity
QVQLVESGGGLVQAGGSLRLSCAASGITFYVYAMGGSRQAPGKERELVAAMTRSGGITSYADSVKGRFTISRDNAKNTGYLQMNSLKPEDTAVYYCAAERTNQHYHIQGVGYWGQGTQVTVSS	low polyreactivity
QVQLVESGGGLVQAGGSLRLSCAASGITFYWYAMGWYRQAPGKDRELVASITGNGGGTSYADSVKGRFTIARDNAKNTVYLQMNSLKPEDTAVYYCNTSVGGKEYDSWGQGTQVTVTS	low polyreactivity
QVQLVESGGGLVQAGGSLRLSCAASGITFYWYAMGWYRQAPGKERELVARISSTGGSTYYADSVKGRFTISRDNAKNTVYLQLNSLKPEDTAVYYCNAVGRLYLYGSWGQGTQVTLSS	high polyreactivity
QVQLVESGGGLVQAGGSLRLSCAASGITFYWYTMGWYRQAPGKERELVADIDGDGGSTYYADSVKGRFTISRDNAKNTVYLQMNSLKPEDTAVYYCAAQVWPWGYDYWGQGTQVTVSS	high polyreactivity
QVQLVESGGGLVQAGGSLRLSCAASGITFYYNAMGWYRQAPGKERELVAAISDGSSTNYADSVKGRFTISRDNAKNTVYLQMNSLKPEDTAVYYCNASWSFPVSGYESRSPGKLDYWGQGTQVTVYS	low polyreactivity
QVQLVESGGGLVQAGGSLRLSCAASGITFYYNAMGWYRQAPGKERELVATINDSDGSTYADSVKGRFTISRDNAKNTVYLQMNSLKPEDTAVYYCNAQTRAGYYFGYGYWGQGTQVTVSS	low polyreactivity
QVQLVESGGGLVQAGGSLRLSCAASGITFYYYAMGWYRQAPGKERELVAAISDNGSRTYYADSVKGRFTISRDNAKNTVYFQMNSLKPEDTAVYYCAADWFYTNVRYRYAYGGYYWGQGTQVTVSS	high polyreactivity
QVQLVESGGGLVQAGGSLRLSCAASGITFYYYAMGWYRQAPGKERELVAAISRSGGRTYYADSVKGRFTISRDNAKNTVYLQMNSLKPEDTAVYYCAAVRYQGGDSSIEYDYWGQGTQVTVSS	high polyreactivity
QVQLVESGGGLVQAGGSLRLSCAASGITFYYYAMGWYRQAPGKERELVAAISSRGGSTYYADSVKGRFTISRDNAKNTVYLQMNSLKPEDTAVYYCAALYDYWGQGTQVTVSS	high polyreactivity
QVQLVESGGGLVQAGGSLRLSCAASGITFYYYDMGWYRLAPGKERELVAAISWSGGRTYYADSVKGRFTISRDNEKNTVYLQMNSLKPEDTAVYYCASGYYVYHFVSLYGGDYWGQGTQVTVSS	high polyreactivity
QVQLVESGGGLVQAGGSLRLSCAASGITGHNAMGWYIQAPGKERELVARISSGGRTNYADSVKGRFTISRDNAKNTVYLQMNSLKPEDTAVYYCAAGFRVGSFLRYNYWGQGTQVTVSS	high polyreactivity
QVQLVESGGGLVQAGGSLRLSCAASGITIDVYGMGWYRQAPGKERELVASIRRRGGSTYYADSVKGRFTISRDNAKNTVYLQMNSLKPEDTAVYYCAAVPSDGHRIWSWDPYPEYDYWGQGTQVTVSS	low polyreactivity
QVQLVESGGGLVQAGGSLRLSCAASGITIDYYAMGWYRQAPGKERELVAAISSVGNTNYADSVKGRFTISRDNAKNTVYLQMNSLKPEDTAVYYCATYAYYLYHVGTAYDYWGQGTQVTVSS	high polyreactivity
QVQLVESGGGLVQAGGSLRLSCAASGITIGSNVMGWYRQAPGKERELVAAISQSGGRTYYADSVKGRFTISRDNAKNTVYLQMNSLKPEDTAVYYCAKRQRSFYGRPMGDYWGQGTQVTVSS	high polyreactivity
